{"source": "patent US10584350B2", "about": "“Structurally modified COI1” (Board of Trustees of Michigan State University, priority 2016, dated 2020)", "molecules": {"B1": {"name": "F443: COI1 alanine substitution mutant at F443 (protein, UniProt O04197 1-592, looked up, variant F443A)", "Coronatine-insensitive …": "MEDPDIKRCKLSCVATVDDVIEQVMTYITDPKDRDSASLVCRRWFKIDSETREHVTMALCYTATPDRLSRRFPNLRSLKLKGKPRAAMFNLIPENWGGYVTPWVTEISNNLRQLKSVHFRRMIVSDLDLDRLAKARADDLETLKLDKCSGFTTDGLLSIVTHCRKIKTLLMEESSFSEKDGKWLHELAQHNTSLEVLNFYMTEFAKISPKDLETIARNCRSLVSVKVGDFEILELVGFFKAAANLEEFCGGSLNEDIGMPEKYMNLVFPRKLCRLGLSYMGPNEMPILFPFAAQIRKLDLLYALLETEDHCTLIQKCPNLEVLETRNVIGDRGLEVLAQYCKQLKRLRIERGADEQGMEDEEGLVSQRGLIALAQGCQELEYMAVYVSDITNESLESIGTYLKNLCDFRLVLLDREERITDLPLDNGVRSLLIGCKKLRRFAAYLRQGGLTDLGLSYIGQYSPNVRWMLLGYVGESDEGLMEFSRGCPNLQKLEMRGCCFSERAIAAAVTKLPSLRYLWVQGYRASMTGQDLMQMARPYWNIELIPSRRVPEVNQQGEIREMEHPAHILAYYSLAGQRTDCPTTVRVLKEPI"}, "B2": {"name": "K492: COI1 alanine substitution mutant at K492 (protein, UniProt O04197 1-592, looked up, variant K492A)", "Coronatine-insensitive …": "MEDPDIKRCKLSCVATVDDVIEQVMTYITDPKDRDSASLVCRRWFKIDSETREHVTMALCYTATPDRLSRRFPNLRSLKLKGKPRAAMFNLIPENWGGYVTPWVTEISNNLRQLKSVHFRRMIVSDLDLDRLAKARADDLETLKLDKCSGFTTDGLLSIVTHCRKIKTLLMEESSFSEKDGKWLHELAQHNTSLEVLNFYMTEFAKISPKDLETIARNCRSLVSVKVGDFEILELVGFFKAAANLEEFCGGSLNEDIGMPEKYMNLVFPRKLCRLGLSYMGPNEMPILFPFAAQIRKLDLLYALLETEDHCTLIQKCPNLEVLETRNVIGDRGLEVLAQYCKQLKRLRIERGADEQGMEDEEGLVSQRGLIALAQGCQELEYMAVYVSDITNESLESIGTYLKNLCDFRLVLLDREERITDLPLDNGVRSLLIGCKKLRRFAFYLRQGGLTDLGLSYIGQYSPNVRWMLLGYVGESDEGLMEFSRGCPNLQALEMRGCCFSERAIAAAVTKLPSLRYLWVQGYRASMTGQDLMQMARPYWNIELIPSRRVPEVNQQGEIREMEHPAHILAYYSLAGQRTDCPTTVRVLKEPI"}, "B3": {"name": "L470: COI1 alanine substitution mutant at L470 (protein, UniProt O04197 1-592, looked up, variant L470A)", "Coronatine-insensitive …": "MEDPDIKRCKLSCVATVDDVIEQVMTYITDPKDRDSASLVCRRWFKIDSETREHVTMALCYTATPDRLSRRFPNLRSLKLKGKPRAAMFNLIPENWGGYVTPWVTEISNNLRQLKSVHFRRMIVSDLDLDRLAKARADDLETLKLDKCSGFTTDGLLSIVTHCRKIKTLLMEESSFSEKDGKWLHELAQHNTSLEVLNFYMTEFAKISPKDLETIARNCRSLVSVKVGDFEILELVGFFKAAANLEEFCGGSLNEDIGMPEKYMNLVFPRKLCRLGLSYMGPNEMPILFPFAAQIRKLDLLYALLETEDHCTLIQKCPNLEVLETRNVIGDRGLEVLAQYCKQLKRLRIERGADEQGMEDEEGLVSQRGLIALAQGCQELEYMAVYVSDITNESLESIGTYLKNLCDFRLVLLDREERITDLPLDNGVRSLLIGCKKLRRFAFYLRQGGLTDLGLSYIGQYSPNVRWMLAGYVGESDEGLMEFSRGCPNLQKLEMRGCCFSERAIAAAVTKLPSLRYLWVQGYRASMTGQDLMQMARPYWNIELIPSRRVPEVNQQGEIREMEHPAHILAYYSLAGQRTDCPTTVRVLKEPI"}, "B4": {"name": "Y472: COI1 alanine substitution mutant at Y472 (protein, UniProt O04197 1-592, looked up, variant Y472A)", "Coronatine-insensitive …": "MEDPDIKRCKLSCVATVDDVIEQVMTYITDPKDRDSASLVCRRWFKIDSETREHVTMALCYTATPDRLSRRFPNLRSLKLKGKPRAAMFNLIPENWGGYVTPWVTEISNNLRQLKSVHFRRMIVSDLDLDRLAKARADDLETLKLDKCSGFTTDGLLSIVTHCRKIKTLLMEESSFSEKDGKWLHELAQHNTSLEVLNFYMTEFAKISPKDLETIARNCRSLVSVKVGDFEILELVGFFKAAANLEEFCGGSLNEDIGMPEKYMNLVFPRKLCRLGLSYMGPNEMPILFPFAAQIRKLDLLYALLETEDHCTLIQKCPNLEVLETRNVIGDRGLEVLAQYCKQLKRLRIERGADEQGMEDEEGLVSQRGLIALAQGCQELEYMAVYVSDITNESLESIGTYLKNLCDFRLVLLDREERITDLPLDNGVRSLLIGCKKLRRFAFYLRQGGLTDLGLSYIGQYSPNVRWMLLGAVGESDEGLMEFSRGCPNLQKLEMRGCCFSERAIAAAVTKLPSLRYLWVQGYRASMTGQDLMQMARPYWNIELIPSRRVPEVNQQGEIREMEHPAHILAYYSLAGQRTDCPTTVRVLKEPI"}, "B5": {"name": "R516: COI1 alanine substitution mutant at R516 (protein, UniProt O04197 1-592, looked up, variant R516A)", "Coronatine-insensitive …": "MEDPDIKRCKLSCVATVDDVIEQVMTYITDPKDRDSASLVCRRWFKIDSETREHVTMALCYTATPDRLSRRFPNLRSLKLKGKPRAAMFNLIPENWGGYVTPWVTEISNNLRQLKSVHFRRMIVSDLDLDRLAKARADDLETLKLDKCSGFTTDGLLSIVTHCRKIKTLLMEESSFSEKDGKWLHELAQHNTSLEVLNFYMTEFAKISPKDLETIARNCRSLVSVKVGDFEILELVGFFKAAANLEEFCGGSLNEDIGMPEKYMNLVFPRKLCRLGLSYMGPNEMPILFPFAAQIRKLDLLYALLETEDHCTLIQKCPNLEVLETRNVIGDRGLEVLAQYCKQLKRLRIERGADEQGMEDEEGLVSQRGLIALAQGCQELEYMAVYVSDITNESLESIGTYLKNLCDFRLVLLDREERITDLPLDNGVRSLLIGCKKLRRFAFYLRQGGLTDLGLSYIGQYSPNVRWMLLGYVGESDEGLMEFSRGCPNLQKLEMRGCCFSERAIAAAVTKLPSLAYLWVQGYRASMTGQDLMQMARPYWNIELIPSRRVPEVNQQGEIREMEHPAHILAYYSLAGQRTDCPTTVRVLKEPI"}, "B6": {"name": "Q491: COI1 alanine substitution mutant at Q491 (protein, UniProt O04197 1-592, looked up, variant Q491A)", "Coronatine-insensitive …": "MEDPDIKRCKLSCVATVDDVIEQVMTYITDPKDRDSASLVCRRWFKIDSETREHVTMALCYTATPDRLSRRFPNLRSLKLKGKPRAAMFNLIPENWGGYVTPWVTEISNNLRQLKSVHFRRMIVSDLDLDRLAKARADDLETLKLDKCSGFTTDGLLSIVTHCRKIKTLLMEESSFSEKDGKWLHELAQHNTSLEVLNFYMTEFAKISPKDLETIARNCRSLVSVKVGDFEILELVGFFKAAANLEEFCGGSLNEDIGMPEKYMNLVFPRKLCRLGLSYMGPNEMPILFPFAAQIRKLDLLYALLETEDHCTLIQKCPNLEVLETRNVIGDRGLEVLAQYCKQLKRLRIERGADEQGMEDEEGLVSQRGLIALAQGCQELEYMAVYVSDITNESLESIGTYLKNLCDFRLVLLDREERITDLPLDNGVRSLLIGCKKLRRFAFYLRQGGLTDLGLSYIGQYSPNVRWMLLGYVGESDEGLMEFSRGCPNLAKLEMRGCCFSERAIAAAVTKLPSLRYLWVQGYRASMTGQDLMQMARPYWNIELIPSRRVPEVNQQGEIREMEHPAHILAYYSLAGQRTDCPTTVRVLKEPI"}, "B7": {"name": "M88: COI1 alanine substitution mutant at M88 (protein, UniProt O04197 1-592, looked up, variant M88A)", "Coronatine-insensitive …": "MEDPDIKRCKLSCVATVDDVIEQVMTYITDPKDRDSASLVCRRWFKIDSETREHVTMALCYTATPDRLSRRFPNLRSLKLKGKPRAAAFNLIPENWGGYVTPWVTEISNNLRQLKSVHFRRMIVSDLDLDRLAKARADDLETLKLDKCSGFTTDGLLSIVTHCRKIKTLLMEESSFSEKDGKWLHELAQHNTSLEVLNFYMTEFAKISPKDLETIARNCRSLVSVKVGDFEILELVGFFKAAANLEEFCGGSLNEDIGMPEKYMNLVFPRKLCRLGLSYMGPNEMPILFPFAAQIRKLDLLYALLETEDHCTLIQKCPNLEVLETRNVIGDRGLEVLAQYCKQLKRLRIERGADEQGMEDEEGLVSQRGLIALAQGCQELEYMAVYVSDITNESLESIGTYLKNLCDFRLVLLDREERITDLPLDNGVRSLLIGCKKLRRFAFYLRQGGLTDLGLSYIGQYSPNVRWMLLGYVGESDEGLMEFSRGCPNLQKLEMRGCCFSERAIAAAVTKLPSLRYLWVQGYRASMTGQDLMQMARPYWNIELIPSRRVPEVNQQGEIREMEHPAHILAYYSLAGQRTDCPTTVRVLKEPI"}, "B8": {"name": "L469: COI1 alanine substitution mutant at L469 (protein, UniProt O04197 1-592, looked up, variant L469A)", "Coronatine-insensitive …": "MEDPDIKRCKLSCVATVDDVIEQVMTYITDPKDRDSASLVCRRWFKIDSETREHVTMALCYTATPDRLSRRFPNLRSLKLKGKPRAAMFNLIPENWGGYVTPWVTEISNNLRQLKSVHFRRMIVSDLDLDRLAKARADDLETLKLDKCSGFTTDGLLSIVTHCRKIKTLLMEESSFSEKDGKWLHELAQHNTSLEVLNFYMTEFAKISPKDLETIARNCRSLVSVKVGDFEILELVGFFKAAANLEEFCGGSLNEDIGMPEKYMNLVFPRKLCRLGLSYMGPNEMPILFPFAAQIRKLDLLYALLETEDHCTLIQKCPNLEVLETRNVIGDRGLEVLAQYCKQLKRLRIERGADEQGMEDEEGLVSQRGLIALAQGCQELEYMAVYVSDITNESLESIGTYLKNLCDFRLVLLDREERITDLPLDNGVRSLLIGCKKLRRFAFYLRQGGLTDLGLSYIGQYSPNVRWMALGYVGESDEGLMEFSRGCPNLQKLEMRGCCFSERAIAAAVTKLPSLRYLWVQGYRASMTGQDLMQMARPYWNIELIPSRRVPEVNQQGEIREMEHPAHILAYYSLAGQRTDCPTTVRVLKEPI"}}}
{"system": "COI1-JAZ9 interaction", "assay": "Y2H assays on plates for protein-protein interaction", "assay_type": "cell-based, Arabidopsis", "conditions": "10 μM COR, yeast", "procedure": "Yeast EGY48 strain carrying the p8Op:LacZ reporter plasmid was co-transformed with pGilda:COI1 (or COI1 mutants) and pB42AD:JAZ9 (or other JAZs) (Clontech). Colonies were selected on SD minimal plates (BD Biosciences) supplemented with the—uracil (U)/-tryptophan (W)/-histidine (H) amino acid drop out solution (Clontech). Yeast colonies were cultured overnight in liquid SD-UWH medium, harvested, washed twice in sterile water, and the absorbance (OD600) of the cultures was adjusted to 0.2 in liquid SD galactose/raffinose-UWH medium (BD Biosciences).\nFor Y2H assays on plates, 10-μL culture was spotted onto SD galactose/raffinose-UWH plates with 80 μg/mL X-gal and 10 μM COR (Sigma-Aldrich). Blue color indicated protein-protein interactions after 5-7 days of incubation at 30° C."}
{"molecule": "B1", "COR-dependent COI1-JAZ9 interaction": "reduced"}
{"molecule": "B2", "COR-dependent COI1-JAZ9 interaction": "reduced"}
{"molecule": "B3", "COR-dependent COI1-JAZ9 interaction": "reduced"}
{"molecule": "B4", "COR-dependent COI1-JAZ9 interaction": "reduced"}
{"molecule": "B5", "COR-dependent COI1-JAZ9 interaction": "reduced"}
{"molecule": "B6", "COR-dependent COI1-JAZ9 interaction": "reduced"}
{"molecule": "B7", "COR-dependent COI1-JAZ9 interaction": "reduced"}
{"molecule": "B8", "COR-dependent COI1-JAZ9 interaction": "reduced"}
